Measured values as given in doi:10.1101/783266.

What was measured:
Assay in all cases: BLI
[1] = molecular target: LRX1^ΔE-FLAG (Arabidopsis thaliana) (UniProt O65375)
[2] = molecular target: LRX4^ΔE-FLAG (Arabidopsis thaliana) (UniProt Q9LHF1)
[3] = molecular target: LRX5^ΔE-FLAG (Arabidopsis thaliana) (UniProt Q9SN46)
Sequence of UniProt Q9SN46 (Q9SN46 32-857, stated change not applied): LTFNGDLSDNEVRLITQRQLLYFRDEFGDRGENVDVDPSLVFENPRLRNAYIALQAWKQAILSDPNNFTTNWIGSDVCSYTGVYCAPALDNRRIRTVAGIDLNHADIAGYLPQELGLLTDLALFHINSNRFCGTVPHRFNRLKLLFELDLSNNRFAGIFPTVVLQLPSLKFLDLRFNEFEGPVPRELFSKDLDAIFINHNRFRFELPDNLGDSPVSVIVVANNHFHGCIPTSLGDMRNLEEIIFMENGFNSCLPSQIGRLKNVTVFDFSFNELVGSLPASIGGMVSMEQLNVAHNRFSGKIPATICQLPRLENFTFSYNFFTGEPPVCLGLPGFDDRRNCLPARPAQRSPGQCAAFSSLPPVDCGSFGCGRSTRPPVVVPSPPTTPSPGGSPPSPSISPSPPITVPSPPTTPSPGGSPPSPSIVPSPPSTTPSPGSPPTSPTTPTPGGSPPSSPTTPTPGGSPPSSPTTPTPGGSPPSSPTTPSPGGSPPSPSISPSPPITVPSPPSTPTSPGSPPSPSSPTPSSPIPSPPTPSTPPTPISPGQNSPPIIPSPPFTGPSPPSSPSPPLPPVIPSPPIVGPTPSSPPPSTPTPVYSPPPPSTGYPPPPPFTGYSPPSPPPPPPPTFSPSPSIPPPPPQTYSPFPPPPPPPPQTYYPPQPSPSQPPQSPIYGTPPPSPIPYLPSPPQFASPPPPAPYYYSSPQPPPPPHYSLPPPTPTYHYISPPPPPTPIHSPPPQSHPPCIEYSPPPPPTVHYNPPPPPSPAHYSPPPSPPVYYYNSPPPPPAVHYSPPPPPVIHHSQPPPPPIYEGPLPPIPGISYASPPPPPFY

Sequence of UniProt O65375 (O65375 27-744, stated change not applied): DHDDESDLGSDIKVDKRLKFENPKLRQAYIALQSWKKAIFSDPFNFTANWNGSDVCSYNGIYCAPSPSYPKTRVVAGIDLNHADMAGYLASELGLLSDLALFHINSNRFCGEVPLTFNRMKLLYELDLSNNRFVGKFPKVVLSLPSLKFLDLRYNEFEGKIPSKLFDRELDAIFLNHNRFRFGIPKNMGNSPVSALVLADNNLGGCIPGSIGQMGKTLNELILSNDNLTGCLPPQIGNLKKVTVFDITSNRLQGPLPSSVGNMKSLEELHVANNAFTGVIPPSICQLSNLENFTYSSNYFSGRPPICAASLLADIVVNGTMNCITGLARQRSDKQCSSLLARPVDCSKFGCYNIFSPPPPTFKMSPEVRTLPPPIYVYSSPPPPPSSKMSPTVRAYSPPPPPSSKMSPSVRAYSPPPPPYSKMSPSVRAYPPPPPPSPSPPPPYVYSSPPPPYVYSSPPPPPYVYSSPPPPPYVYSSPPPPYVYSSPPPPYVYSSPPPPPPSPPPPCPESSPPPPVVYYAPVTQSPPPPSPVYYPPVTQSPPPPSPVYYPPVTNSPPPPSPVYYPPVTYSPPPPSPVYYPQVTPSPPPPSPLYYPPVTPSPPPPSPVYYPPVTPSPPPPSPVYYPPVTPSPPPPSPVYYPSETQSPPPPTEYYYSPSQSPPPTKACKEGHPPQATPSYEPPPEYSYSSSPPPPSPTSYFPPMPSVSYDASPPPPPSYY
Sequence of UniProt Q9LHF1 (Q9LHF1 26-494, stated change not applied): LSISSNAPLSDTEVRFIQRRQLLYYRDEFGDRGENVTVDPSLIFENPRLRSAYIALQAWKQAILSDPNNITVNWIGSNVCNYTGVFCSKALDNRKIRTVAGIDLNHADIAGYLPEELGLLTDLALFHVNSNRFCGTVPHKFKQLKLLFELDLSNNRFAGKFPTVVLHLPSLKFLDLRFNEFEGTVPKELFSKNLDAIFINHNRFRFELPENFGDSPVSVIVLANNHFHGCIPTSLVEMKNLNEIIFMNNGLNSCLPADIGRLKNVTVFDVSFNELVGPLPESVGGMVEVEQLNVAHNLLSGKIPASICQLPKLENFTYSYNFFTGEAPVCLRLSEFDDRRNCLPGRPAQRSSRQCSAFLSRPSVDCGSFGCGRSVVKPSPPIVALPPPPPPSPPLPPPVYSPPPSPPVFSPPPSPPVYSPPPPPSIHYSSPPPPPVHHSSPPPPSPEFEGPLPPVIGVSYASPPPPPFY

Kd [1]: 5 nM
Kd [2]: 5 nM
Kd [3]: 5 nM
Binder: ATTKYISYQSLKRNSVPCSRRGASYYNCQNGAQANPYSRGCSKIARCRS [RALF1, in vitro synthesized peptide]
